Measurements as given in article PMC5683673.

Target: purified recombinant human dimeric DPP-4 protein (dipeptidyl peptidase-4) (human), P27487
Assay: SEC
Conditions: remark: other sources report otherwise

B1: purified recombinant human dimeric DPP-4 protein (dipeptidyl peptidase-4), P27487 29-766 (enzyme)
chain: NKGTDDATADSRKTYTLTDYLKNTYRLKLYSLRWISDHEYLYKQENNILVFNAEYGNSSVFLENSTFDEFGHSINDYSISPDGQFILLEYNYVKQWRHSYTASYDIYDLNKRQLITEERIPNNTQWVTWSPVGHKLAYVWNNDIYVKIEPNLPSYRITWTGKEDIIYNGITDWVYEEEVFSAYSALWWSPNGTFLAYAQFNDTEVPLIEYSFYSDESLQYPKTVRVPYPKAGAVNPTVKFFVVNTDSLSSVTNATSIQITAPASMLIGDHYLCDVTWATQERISLQWLRRIQNYSVMDICDYDESSGRWNCLVARQHIEMSTTGWVGRFRPSEPHFTLDGNSFYKIISNEEGYRHICYFQIDKKDCTFITKGTWEVIGIEALTSDYLYYISNEYKGMPGGRNLYKIQLSDYTKVTCLSCELNPERCQYYSVSFSKEAKYYQLRCSGPGLPLYTLHSSVNDKGLRVLEDNSALDKMLQNVQMPSKKLDFIILNETKFWYQMILPPHFDKSKKYPLLLDVYAGPCSQKADTVFRLNWATYLASTENIIVASFDGRGSGYQGDKIMHAINRRLGTFEVEDQIEAARQFSKMGFVDNKRIAIWGWSYGGYVTSMVLGSGSGVFKCGIAVAPVSRWEYYDSVYTERYMGLPTPEDNLDHYRNSTVMSRAENFKQVEYLLIHGTADDNVHFQQSAQISKALVDVGVDFQAMWYTDEDHGIASSTAHQHIYTHMSHFIKQCFSLP
  percent present as dimer: 85%
